Drawing on PMC6994067, this text covers pKa for one substance.

Some targets named below: His105 (UniProt position 126, GTPEVHAVKPG); Glu85 (UniProt position 106, PEDKYEAFVLH); Glu103 (UniProt position 124, IAGTPEVHAVK); Glu7 (UniProt position 28, GKATTEEQKLI); Asp33 (UniProt position 54, NVPPADKYKTF); His77 (UniProt position 98, YNAADHAAPED); Glu81 (UniProt position 102, DHAAPEDKYEA); His90 (UniProt position 111, EAFVLHFSEAL); Glu13 (UniProt position 34, EQKLIEDVNAS); Glu39 (UniProt position 60, KYKTFEAAFTV); Asp52 (UniProt position 73, KRNLADAVSKA); Glu66 (UniProt position 87, VPKLDEVYNAA); Asp82 (UniProt position 103, HAAPEDKYEAF); Asp65 (UniProt position 86, LVPKLDEVYNA); Asp14 (UniProt position 35, QKLIEDVNASF); Glu8 (UniProt position 29, KATTEEQKLIE); Asp76 (UniProt position 97, AYNAADHAAPE); Glu93 (UniProt position 114, VLHFSEALRII).

What all share (experiment): NMR
Common to all, as to conditions: 25 °C, not stated (10 mM citrate-phosphate buffer; no added salt mentioned), folded, free protein, 1 mM

Usually pKa stands for the negative logarithm of the acid dissociation constant.

Consider “Pollen allergen Phl p 6 (Phleum pratense (timothy grass))”, for which the pKa with His105 is 6.5; with Glu85, 4.59; with Glu103, 3.65; with Glu7, 4.25; with Asp33, 3.38; with His77, 7.4. Besides, the pKa in the data set with Glu81 turned out to be 3.52; in the data set with His90, 7.3; with Glu13 it was 3.80; with Glu39, 4.84; with Asp52 it was 2.4; with Glu66, 4.06. The pKa turned out to be 3.06 in the data set with Asp82; 4.80 in the data set with Asp65; 3.50 in the data set with Asp14; 3.19 with Glu8; 3.50 with Asp76; 4.21 with Glu93.
